Reference: US20180140578A1, “METHODS AND COMPOSITIONS FOR THE DIAGNOSIS AND SELECTIVE TREATMENT OF CANCER” (Board of Regents of the University of Texas System, priority 2016, published 2018)

Key:
RBM39-3xFLAG (human) [1] = target: RBM39-3xFLAG (human) (UniProt Q14498); assay: anti-FLAG IP of RBM39-3xFLAG from H1155 cells treated with DMSO (no indisulam), LC-MS/MS
RBM39-3xFLAG (human) [2] = target: RBM39-3xFLAG (human) (UniProt Q14498); assay: anti-FLAG IP of RBM39-3xFLAG from H1155 cells treated with 10 µM indisulam, LC-MS/MS
DCAF15-3xFLAG (human) = DCAF15-3xFLAG (human) (UniProt Q66K64); assay: pull-down of 100 nM RBM39Δ150 by DCAF15-3xFLAG on anti-FLAG beads with rising indisulam, western blot (FIG. 4C)
Chain of DCAF15-3xFLAG (human) (Q66K64 whole entry): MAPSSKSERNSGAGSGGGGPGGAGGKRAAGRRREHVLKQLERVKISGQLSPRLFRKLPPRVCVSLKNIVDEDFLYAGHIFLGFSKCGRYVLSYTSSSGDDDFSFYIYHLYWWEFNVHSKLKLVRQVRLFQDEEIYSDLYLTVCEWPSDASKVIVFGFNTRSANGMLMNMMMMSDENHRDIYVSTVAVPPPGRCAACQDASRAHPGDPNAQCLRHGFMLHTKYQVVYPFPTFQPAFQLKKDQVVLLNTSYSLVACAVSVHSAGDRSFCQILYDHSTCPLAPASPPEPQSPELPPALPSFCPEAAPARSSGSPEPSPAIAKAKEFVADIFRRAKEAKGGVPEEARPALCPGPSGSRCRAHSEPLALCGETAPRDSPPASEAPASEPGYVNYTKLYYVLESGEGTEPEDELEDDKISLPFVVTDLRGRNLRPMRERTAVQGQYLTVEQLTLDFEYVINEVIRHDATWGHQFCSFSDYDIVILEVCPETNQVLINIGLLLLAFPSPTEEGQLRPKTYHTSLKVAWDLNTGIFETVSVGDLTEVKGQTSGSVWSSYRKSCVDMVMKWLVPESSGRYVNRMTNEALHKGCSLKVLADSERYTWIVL

Chain of RBM39-3xFLAG (human) (Q14498 whole entry): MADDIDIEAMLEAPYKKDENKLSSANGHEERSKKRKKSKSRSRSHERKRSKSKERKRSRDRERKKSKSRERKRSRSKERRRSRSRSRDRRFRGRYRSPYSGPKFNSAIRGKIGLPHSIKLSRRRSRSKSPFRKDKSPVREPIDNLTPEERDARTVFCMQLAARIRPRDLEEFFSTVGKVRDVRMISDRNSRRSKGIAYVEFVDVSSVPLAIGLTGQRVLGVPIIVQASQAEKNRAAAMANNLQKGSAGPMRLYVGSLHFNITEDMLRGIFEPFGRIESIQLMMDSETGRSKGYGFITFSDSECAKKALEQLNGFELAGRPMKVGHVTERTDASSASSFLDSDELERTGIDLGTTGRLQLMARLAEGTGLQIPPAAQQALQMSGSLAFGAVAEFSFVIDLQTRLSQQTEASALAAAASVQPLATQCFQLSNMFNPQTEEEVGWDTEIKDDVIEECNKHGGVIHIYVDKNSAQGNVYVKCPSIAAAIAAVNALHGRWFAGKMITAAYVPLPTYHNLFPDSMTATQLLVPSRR

Q: Which results are given for HDX (from UniProt Q7Z353 1-690)?
A: DMSO total (peptide count) (RBM39-3xFLAG (human) [1]): 0 peptides; DMSO unique (peptide count) (RBM39-3xFLAG (human) [1]): 0 peptides; indisulam total (peptide count) (RBM39-3xFLAG (human) [2]): 15 peptides; indisulam unique (peptide count) (RBM39-3xFLAG (human) [2]): 14 peptides

Q: How did the DMSO total (peptide count) (RBM39-3xFLAG (human) [1]) turn out when DDB1 (from UniProt Q16531 2-1140) was run?
A: The DMSO total (peptide count) was 5 peptides.

Q: What about the DMSO unique (peptide count) (RBM39-3xFLAG (human) [1]) of the same substance?
A: Its DMSO unique (peptide count) is 4 peptides.

Q: And the indisulam total (peptide count) (RBM39-3xFLAG (human) [2])?
A: Its indisulam total (peptide count) is 52 peptides.

Q: What about the indisulam unique (peptide count) (RBM39-3xFLAG (human) [2]) of the same substance?
A: The indisulam unique (peptide count) was 46 peptides.

Q: CUL4A (from UniProt Q13619 1-759) was tested. Which DMSO total (peptide count) (RBM39-3xFLAG (human) [1]) did it give?
A: The DMSO total (peptide count) was 1 peptides.

Q: And the DMSO unique (peptide count) (RBM39-3xFLAG (human) [1])?
A: The DMSO unique (peptide count) was 1 peptides.

Q: And the indisulam total (peptide count) (RBM39-3xFLAG (human) [2])?
A: Its indisulam total (peptide count) is 11 peptides.

Q: What about the indisulam unique (peptide count) (RBM39-3xFLAG (human) [2]) of the same substance?
A: Its indisulam unique (peptide count) is 11 peptides.

Q: Which results are given for PDIA3 (from UniProt P30101 25-505)?
A: DMSO total (peptide count) (RBM39-3xFLAG (human) [1]): 0 peptides; DMSO unique (peptide count) (RBM39-3xFLAG (human) [1]): 0 peptides; indisulam total (peptide count) (RBM39-3xFLAG (human) [2]): 4 peptides; indisulam unique (peptide count) (RBM39-3xFLAG (human) [2]): 4 peptides

Q: For PPM1B (from UniProt O75688 2-479), which DMSO total (peptide count) (RBM39-3xFLAG (human) [1]) is on record?
A: Its DMSO total (peptide count) is 0 peptides.

Q: What about the DMSO unique (peptide count) (RBM39-3xFLAG (human) [1]) of the same substance?
A: The DMSO unique (peptide count) was 0 peptides.

Q: What about the indisulam total (peptide count) (RBM39-3xFLAG (human) [2]) of the same substance?
A: Its indisulam total (peptide count) is 5 peptides.

Q: What about the indisulam unique (peptide count) (RBM39-3xFLAG (human) [2]) of the same substance?
A: Its indisulam unique (peptide count) is 5 peptides.

Q: Which DMSO total (peptide count) (RBM39-3xFLAG (human) [1]) does the source give for DDX46 (from UniProt Q7L014 2-1031) here?
A: The DMSO total (peptide count) was 0 peptides.

Q: What about the DMSO unique (peptide count) (RBM39-3xFLAG (human) [1]) of the same substance?
A: The DMSO unique (peptide count) was 0 peptides.

Q: And the indisulam total (peptide count) (RBM39-3xFLAG (human) [2])?
A: Its indisulam total (peptide count) is 6 peptides.

Q: And the indisulam unique (peptide count) (RBM39-3xFLAG (human) [2])?
A: The indisulam unique (peptide count) was 6 peptides.

Q: Which results are given for TPI1 (from UniProt P60174 2-249)?
A: DMSO total (peptide count) (RBM39-3xFLAG (human) [1]): 0 peptides; DMSO unique (peptide count) (RBM39-3xFLAG (human) [1]): 0 peptides; indisulam total (peptide count) (RBM39-3xFLAG (human) [2]): 4 peptides; indisulam unique (peptide count) (RBM39-3xFLAG (human) [2]): 4 peptides

Q: Which results are given for DDA1 (from UniProt Q9BW61 2-102)?
A: DMSO total (peptide count) (RBM39-3xFLAG (human) [1]): 0 peptides; DMSO unique (peptide count) (RBM39-3xFLAG (human) [1]): 0 peptides; indisulam total (peptide count) (RBM39-3xFLAG (human) [2]): 4 peptides; indisulam unique (peptide count) (RBM39-3xFLAG (human) [2]): 4 peptides

Q: Which results are given for CUL4B (from UniProt Q13620 1-913)?
A: DMSO total (peptide count) (RBM39-3xFLAG (human) [1]): 0 peptides; DMSO unique (peptide count) (RBM39-3xFLAG (human) [1]): 0 peptides; indisulam total (peptide count) (RBM39-3xFLAG (human) [2]): 16 peptides; indisulam unique (peptide count) (RBM39-3xFLAG (human) [2]): 15 peptides

Q: Which results are given for “DKFZp686J1372 (from UniProt Q5HYB6 1-232)”?
A: DMSO total (peptide count) (RBM39-3xFLAG (human) [1]): 0 peptides; DMSO unique (peptide count) (RBM39-3xFLAG (human) [1]): 0 peptides; indisulam total (peptide count) (RBM39-3xFLAG (human) [2]): 4 peptides; indisulam unique (peptide count) (RBM39-3xFLAG (human) [2]): 4 peptides

Q: Which indisulam concentration at which the complex was apparent (DCAF15-3xFLAG (human)) does the source give for RBM39Δ150 (from UniProt Q14498 151-530) here?
A: Its indisulam concentration at which the complex was apparent is 0.1 µM.

Q: Which results are given for TPM3 (from UniProt P06753 2-285)?
A: DMSO total (peptide count) (RBM39-3xFLAG (human) [1]): 0 peptides; DMSO unique (peptide count) (RBM39-3xFLAG (human) [1]): 0 peptides; indisulam total (peptide count) (RBM39-3xFLAG (human) [2]): 4 peptides; indisulam unique (peptide count) (RBM39-3xFLAG (human) [2]): 4 peptides

Q: ANXA2 (from UniProt P07355 2-339) was tested. Which DMSO total (peptide count) (RBM39-3xFLAG (human) [1]) did it give?
A: Its DMSO total (peptide count) is 1 peptides.

Q: What about the DMSO unique (peptide count) (RBM39-3xFLAG (human) [1]) of the same substance?
A: Its DMSO unique (peptide count) is 1 peptides.

Q: And the indisulam total (peptide count) (RBM39-3xFLAG (human) [2])?
A: Its indisulam total (peptide count) is 11 peptides.

Q: What about the indisulam unique (peptide count) (RBM39-3xFLAG (human) [2]) of the same substance?
A: Its indisulam unique (peptide count) is 10 peptides.

Q: PSMC5 (from UniProt P62195 2-406) was tested. Which DMSO total (peptide count) (RBM39-3xFLAG (human) [1]) did it give?
A: The DMSO total (peptide count) was 0 peptides.

Q: What about the DMSO unique (peptide count) (RBM39-3xFLAG (human) [1]) of the same substance?
A: Its DMSO unique (peptide count) is 0 peptides.

Q: What about the indisulam total (peptide count) (RBM39-3xFLAG (human) [2]) of the same substance?
A: Its indisulam total (peptide count) is 6 peptides.

Q: And the indisulam unique (peptide count) (RBM39-3xFLAG (human) [2])?
A: The indisulam unique (peptide count) was 6 peptides.

Q: How did the DMSO total (peptide count) (RBM39-3xFLAG (human) [1]) turn out when FUS (from UniProt P35637 1-526) was run?
A: The DMSO total (peptide count) was 0 peptides.

Q: What about the DMSO unique (peptide count) (RBM39-3xFLAG (human) [1]) of the same substance?
A: Its DMSO unique (peptide count) is 0 peptides.

Q: What about the indisulam total (peptide count) (RBM39-3xFLAG (human) [2]) of the same substance?
A: The indisulam total (peptide count) was 6 peptides.

Q: And the indisulam unique (peptide count) (RBM39-3xFLAG (human) [2])?
A: Its indisulam unique (peptide count) is 6 peptides.

Q: Which DMSO total (peptide count) (RBM39-3xFLAG (human) [1]) does the source give for PSMD11 (from UniProt O00231 2-422) here?
A: Its DMSO total (peptide count) is 0 peptides.

Q: What about the DMSO unique (peptide count) (RBM39-3xFLAG (human) [1]) of the same substance?
A: Its DMSO unique (peptide count) is 0 peptides.

Q: What about the indisulam total (peptide count) (RBM39-3xFLAG (human) [2]) of the same substance?
A: Its indisulam total (peptide count) is 5 peptides.

Q: And the indisulam unique (peptide count) (RBM39-3xFLAG (human) [2])?
A: Its indisulam unique (peptide count) is 5 peptides.

Q: Which DMSO total (peptide count) (RBM39-3xFLAG (human) [1]) does the source give for YWHAB (from UniProt P31946 1-246) here?
A: The DMSO total (peptide count) was 0 peptides.

Q: What about the DMSO unique (peptide count) (RBM39-3xFLAG (human) [1]) of the same substance?
A: The DMSO unique (peptide count) was 0 peptides.

Q: And the indisulam total (peptide count) (RBM39-3xFLAG (human) [2])?
A: Its indisulam total (peptide count) is 5 peptides.

Q: And the indisulam unique (peptide count) (RBM39-3xFLAG (human) [2])?
A: The indisulam unique (peptide count) was 4 peptides.
